± gives the uncertainty stated by the source.
Test: protein stability index of a GFP-peptide fusion (yeast GPS) (PSI 1-4); higher = more stable; sorted into four equal gates, so the index is relative within each strain
Method in brief: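 Mid-log yeast cultures in leucine-free medium, carrying a pooled plasmid library, were sorted into four equal gates by their GFP/Cherry fluorescence ratio. Each plasmid expressed Cherry along with GFP fused upstream of a tiled 17-residue yeast protein peptide. Plasmids recovered from each gate were PCR-amplified and Illumina-sequenced, with reads assigned to strains by barcodes. The protein stability index was obtained by summing each gate's read frequency weighted by its gate number.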

| Sequence | protein stability index (doa10∆) | protein stability index (pdr5∆) | protein stability index (san1∆) | protein stability index (ubr1∆) |
| --- | --- | --- | --- | --- |
| TMLELLNQLDGFETSKN [RPT6] | 2.92 ± 0.13 | 3.13 ± 0.11 | 2.63 ± 0.2 | 2.84 ± 0.087 |
| NNYDDFMLSDDEGMESI [RRI2] | 2.54 ± 0.26 | 3.71 ± 0.19 | 3.37 ± 0.18 |  |
| SVVSMSNDVLKPETPKG [SIR2] | 3.01 ± 0.073 | 3.51 ± 0.11 | 3.25 ± 0.062 | 2.96 ± 0.052 |
| LLENSVDKNFDKLELYV [MTW1] | 3.03 ± 0.052 | 2.64 ± 0.065 | 3.15 ± 0.065 | 2.97 ± 0.048 |
| MAKDIEISASESKFILE [RRP45] | 3.17 ± 0.092 | 3.06 ± 0.14 | 2.99 ± 0.064 | 3.02 ± 0.093 |
| LFKRDCNQMENLLESIT [YCS4] |  | 2.17 ± 0.12 |  | 2.38 ± 0.22 |
| HYERTQTKENKRCVGVI [RPN8] | 2.9 ± 0.12 | 2.69 ± 0.1 | 2.49 ± 0.093 | 2.43 ± 0.057 |
| ATQKESLEMVPKDTSAA [RGR1] | 3.25 ± 0.087 | 3.25 ± 0.07 | 3.09 ± 0.055 | 3.17 ± 0.05 |
| ELENFLDNFETKTEALL [YJL041W/NSP1] | 2.62 ± 0.12 | 2.91 ± 0.14 | 2.72 ± 0.15 | 1.81 ± 0.1 |
| MSVKPIDNYITNSVRLF [SRP21] | 1.94 ± 0.076 | 1.91 ± 0.06 | 1.56 ± 0.068 | 1.63 ± 0.079 |
| GYVIKVFNNGIVVLVPK [DIS3] | 2.59 ± 0.092 | 2.38 ± 0.079 | 2.39 ± 0.077 | 2.82 ± 0.067 |
| KVVTKKYCEIMGDNSQL [SNF2] | 3.19 ± 0.17 | 3.25 ± 0.14 | 2.88 ± 0.15 | 2.98 ± 0.1 |
| ICLYSSFQKNSLHNTEK [AAR2] | 1.99 ± 0.065 | 2.24 ± 0.058 | 2.57 ± 0.064 | 2.78 ± 0.057 |
| EMVKDRGYFITQEEVEL [RPB5] | 2.62 ± 0.071 | 2.08 ± 0.071 | 1.74 ± 0.066 | 2.1 ± 0.042 |
| FRGIIRSQDVRSTDRDR [CSL4] |  |  |  | 2.9 ± 0.2 |
| VNLPGGILRRKSESDEL [RRP4] | 3.31 ± 0.15 | 3.29 ± 0.15 | 2.88 ± 0.1 | 3.29 ± 0.14 |
| QPKPLFSFGKSDAAKEP [YOR098C/NUP1] | 2.52 ± 0.07 | 2.6 ± 0.039 | 2.44 ± 0.073 | 2.72 ± 0.085 |
| ENGTLLVPPPRTIANQD [RPR2] | 3.01 ± 0.054 | 3.05 ± 0.052 | 2.81 ± 0.05 | 2.99 ± 0.036 |
| ADAVTKDLKLRREDEII [REC8] | 3.08 ± 0.11 | 3.31 ± 0.1 | 3.3 ± 0.065 | 3.03 ± 0.062 |
| QANQVKRHSYAQSSHIR [RPS1A] | 2.528 ± 0.023 | 2.622 ± 0.021 | 2.564 ± 0.025 | 2.471 ± 0.019 |
| VLARISPELSLQRHLSL [RRP43] | 2.47 ± 0.054 | 2.04 ± 0.072 | 2.02 ± 0.093 | 2.47 ± 0.05 |
| TNFNEITNTDETITTKR [SWP82] | 3.13 ± 0.058 | 3.25 ± 0.061 | 3.08 ± 0.067 | 3.32 ± 0.045 |
| LVSLLDENDSKKNNAAS [YAR002W/NUP60] | 3 ± 0.07 | 2.92 ± 0.071 | 2.86 ± 0.092 | 3.08 ± 0.056 |
| SKSMKFSRRFDCRDVYC [CSN9] | 2.7 ± 0.07 | 2.64 ± 0.09 | 2.58 ± 0.088 | 2.66 ± 0.051 |
| KCPLLVEVDITLSPNVT [GRR1] | 1.8 ± 0.058 | 1.83 ± 0.065 | 1.76 ± 0.088 | 2.51 ± 0.071 |
| CLFTKCLEDPEKPFNEN [POP4] | 2.67 ± 0.15 | 3.02 ± 0.15 | 2.7 ± 0.2 | 2.96 ± 0.079 |

| Sequence | protein stability index (doa10∆) | protein stability index (pdr5∆) | protein stability index (san1∆) | protein stability index (ubr1∆) |
| --- | --- | --- | --- | --- |
| YLKESKRKYDEITHPPS [SWI3] | 2.59 ± 0.17 | 3.39 ± 0.15 | 3.02 ± 0.1 | 3.05 ± 0.11 |
| WALKSSLNSMTNAKLPN [RGR1] | 2.74 ± 0.092 | 2.77 ± 0.13 | 3.17 ± 0.052 | 2.39 ± 0.05 |
| EVSDFDEMYELTDPMTV [DIB1] |  | 3.48 ± 0.18 | 2.94 ± 0.23 | 2.85 ± 0.26 |
| KRLNGKRKYLDIPIDEM [SSN2] | 3.19 ± 0.13 | 2.97 ± 0.14 | 3.23 ± 0.078 | 3.14 ± 0.17 |
| EEGRAIPGEYITYALSG [RPS21B] | 2.99 ± 0.073 | 3.1 ± 0.11 | 2.88 ± 0.078 | 2.96 ± 0.044 |
| TAILQRQLQYETLGDIL [ECM29] | 2.62 ± 0.086 | 3.31 ± 0.12 | 2.73 ± 0.098 | 3.02 ± 0.097 |
| PMVSVMKMDKSPTESYS [RPT2] | 1.64 ± 0.11 | 1.57 ± 0.088 | 1.11 ± 0.2 | 1.71 ± 0.093 |
| IAVLRSKEWFQLDDEDF [FAS1] | 2.03 ± 0.041 | 2.09 ± 0.041 | 1.81 ± 0.058 | 2.32 ± 0.038 |
| FVHYGEIKNDFIMVKGC [RPL3] | 2.06 ± 0.094 | 2.14 ± 0.067 | 2.1 ± 0.1 | 2.38 ± 0.076 |
| NKKIGKRPPEIMSTEAH [SIR4] | 3.09 ± 0.12 | 3.27 ± 0.17 | 3.04 ± 0.09 | 3.22 ± 0.088 |
| TKEMDEVEEDDEDDDQP [SWI3] | 3.39 ± 0.12 | 3.49 ± 0.068 | 3.48 ± 0.056 | 3.27 ± 0.066 |
| QERQRQIQKNGPEITPE [PRP8] | 2.88 ± 0.11 | 3.2 ± 0.11 | 2.77 ± 0.11 | 2.85 ± 0.092 |
| QRDAEISQPKSMSGRIS [BRR2] | 3.22 ± 0.058 | 3.3 ± 0.055 | 3.23 ± 0.062 | 3.18 ± 0.051 |
| TTYSVDDYYKEIIGGGS [ISW2] | 3.32 ± 0.1 | 3.02 ± 0.13 | 3.19 ± 0.088 | 3.33 ± 0.13 |
| PKNIEPPLTSQYSTRHD [SWI3] | 3.07 ± 0.048 | 3.02 ± 0.059 | 3.04 ± 0.041 | 3.03 ± 0.042 |
| FHAEPSGTFYRYNAKAI [PUP2] | 2.79 ± 0.15 | 1.81 ± 0.13 | 2.87 ± 0.059 | 1.67 ± 0.077 |
| AEEKREAVIDEKLEVIA [ITC1] | 3.04 ± 0.15 | 2.62 ± 0.16 | 3.03 ± 0.14 | 3.13 ± 0.082 |
| ISSEKLLTLTNAANVPV [RPP1A] | 2.95 ± 0.091 | 2.9 ± 0.1 | 2.93 ± 0.065 | 3 ± 0.082 |
| LILGLNTSIAQFDIQSP [YML103C/NUP188] | 1.94 ± 0.044 | 1.81 ± 0.045 | 2.29 ± 0.071 | 2.6 ± 0.044 |
| NDFKKIGRENENENEDD [POP5] | 3.22 ± 0.11 | 3.28 ± 0.097 | 3.16 ± 0.067 | 2.79 ± 0.11 |
| KCPGCLNITTVFSHAQT [RPS27A] | 2.76 ± 0.046 | 2.76 ± 0.051 | 2.9 ± 0.045 | 2.99 ± 0.043 |
| QTANEKHITVRLTAKRL [SRP14] | 2.75 ± 0.1 | 2.91 ± 0.09 | 2.94 ± 0.082 | 2.92 ± 0.065 |
| IWPAEDALRRGMLAMAS [MED4] | 3.12 ± 0.11 | 3.24 ± 0.099 | 3.05 ± 0.075 | 3.27 ± 0.086 |
| PSYSPTSPSYSPTSPSY [RPO21] | 2.65 ± 0.03 | 2.884 ± 0.028 | 2.859 ± 0.028 | 2.815 ± 0.023 |
| ASSAAAGAAGAAAGGDA [RPP2B] | 2.87 ± 0.11 | 3.02 ± 0.084 | 3.21 ± 0.071 | 2.87 ± 0.095 |

Source: the supplement of paper PMC9732359
